For 1 molecule, K1/2 of GCAP1 for activating the guanylyl cyclase activity of recombinant RetGC1, with additional 50 mM NaCl instead of bicarbonate (pilot measurement, not shown), K1/2 of GCAP1 for activating the guanylyl cyclase activity of recombinant RetGC1 in HEK293 membranes (hyperbolic fit, 0-10 μM GCAP1), with 50 mM NaHCO3 and K1/2 of GCAP1 for activating the guanylyl cyclase activity of recombinant RetGC1 in HEK293 membranes (hyperbolic fit, 0-10 μM GCAP1), without NaHCO3 results are on record in PMC11663931.

In assay [1] the target is human recombinant RetGC1 (retinal membrane guanylyl cyclase 1) (human) (UniProt Q02846).
For assay [2] the target is unchanged. The source holds these as a separate data set.

Sequence of UniProt Q02846 (Q02846 52-1103): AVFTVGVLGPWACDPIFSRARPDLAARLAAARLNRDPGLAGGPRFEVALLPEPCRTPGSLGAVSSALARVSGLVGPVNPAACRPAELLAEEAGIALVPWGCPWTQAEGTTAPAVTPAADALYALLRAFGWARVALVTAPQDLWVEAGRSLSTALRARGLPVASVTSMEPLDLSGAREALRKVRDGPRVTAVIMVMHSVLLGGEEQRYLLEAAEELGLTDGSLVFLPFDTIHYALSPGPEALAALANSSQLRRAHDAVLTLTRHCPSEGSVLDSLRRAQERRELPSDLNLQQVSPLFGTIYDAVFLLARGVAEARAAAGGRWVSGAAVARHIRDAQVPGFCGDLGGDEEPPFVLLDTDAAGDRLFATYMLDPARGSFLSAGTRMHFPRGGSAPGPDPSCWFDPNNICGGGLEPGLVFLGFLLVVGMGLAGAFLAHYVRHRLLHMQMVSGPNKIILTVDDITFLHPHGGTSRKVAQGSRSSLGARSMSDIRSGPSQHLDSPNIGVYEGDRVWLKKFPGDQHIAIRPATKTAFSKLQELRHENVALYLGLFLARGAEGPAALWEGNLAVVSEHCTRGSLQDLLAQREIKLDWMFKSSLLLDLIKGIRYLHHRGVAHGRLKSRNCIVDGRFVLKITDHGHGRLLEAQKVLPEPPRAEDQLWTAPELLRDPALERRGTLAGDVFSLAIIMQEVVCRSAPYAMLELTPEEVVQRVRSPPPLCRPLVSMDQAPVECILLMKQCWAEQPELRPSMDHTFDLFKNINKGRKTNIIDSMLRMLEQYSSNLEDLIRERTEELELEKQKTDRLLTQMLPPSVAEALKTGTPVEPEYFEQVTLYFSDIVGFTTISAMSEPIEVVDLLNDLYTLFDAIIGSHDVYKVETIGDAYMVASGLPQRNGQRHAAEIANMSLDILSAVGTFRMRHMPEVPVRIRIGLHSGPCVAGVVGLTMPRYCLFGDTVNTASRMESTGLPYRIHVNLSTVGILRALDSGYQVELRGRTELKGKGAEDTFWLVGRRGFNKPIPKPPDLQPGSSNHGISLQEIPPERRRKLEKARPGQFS

B1: purified myristoylated bovine GCAP1 (guanylyl cyclase activating protein 1) (natural protein)
chain: MGNIMDGKSVEELSSTECHQWYKKFMTECPSGQLTLYEFRQFFGLKNLSPWASQYVEQMFETFDFNKDGYIDFMEYVAALSLVLKGKVEQKLRWYFKLYDVDGNGCIDRDELLTIIRAIRAINPCSDSTMTAEEFTDTVFSKIDVNGDGELSLEEFMEGVQKDQMLLDTLTRSLDLTRIVRRLQNGEQDEEGASGRETEAAEADG
modifications: N-myristoylated
On to B1, for which the K1/2 of GCAP1 for activating the guanylyl cyclase activity of recombinant RetGC1, with additional 50 mM NaCl instead of bicarbonate (pilot measurement, not shown) in assay [1] was 2 µM. Also, in assay [2], the K1/2 of GCAP1 for activating the guanylyl cyclase activity of recombinant RetGC1 in HEK293 membranes (hyperbolic fit, 0-10 μM GCAP1), with 50 mM NaHCO3 was found to be 2.9 µM and the K1/2 of GCAP1 for activating the guanylyl cyclase activity of recombinant RetGC1 in HEK293 membranes (hyperbolic fit, 0-10 μM GCAP1), without NaHCO3 is 1.47 µM.
